Experimental data taken from PMC4783942, “Microwave-Assisted Synthesis of Glycoconjugates by Transgalactosylation with Recombinant Thermostable β-Glycosidase from Pyrococcus” (International Journal of Molecular Sciences, 2016).

Substrate: CC(=O)N[C@@H]1[C@@H](O)[C@H](O)[C@@H](CO)O[C@H]1NC(=S)NCCNC(=O)OC(C)(C)C
Experiment: transgalactosylation kinetics, HPLC
Assay type: biochemical, Pyrococcus woesei
Conditions: acceptor substrate varied, donor lactose, 85 °C thermal heating, citrate-phosphate buffer pH 5.5

B1: β-glycosidase from Pyrococcus woesei (DSM 3773) (Pyrococcus woesei; T436I) (protein)
chain: MFPEKFLWGVAQSGFQFEMGDKLRRNIDTNTDWWHWVRDKTNIEKGLVSGDLPEEGINNYELYEKDHEIARKLGLNAYRIGIEWSRIFPWPTTFIDVDYSYNESYNLIEDVKITKDTLEELDEIANKREVAYYRSVINSLRSKGFKVIVNLNHFTLPYWLHDPIEARERALTNKRNGWVNPRTVIEFAKYAAYIAYKFGDIVDMWSTFNEPMVVVELGYLAPYSGFPPGVLNPEAAKLAILHMINAHALAYRQIKKFDTEKADKDSKEPAEVGIIYNNIGVAYPKDPNDSKDVKAAENDNFFHSGLFFEAIHKGKLNIEFDGETFIDAPYLKGNDWIGVNYYTREVVTYQEPMFPSIPLITFKGVQGYGYACRPGTLSKDDRPVSDIGWELYPEGMYDSIVEAHKYGVPVYVTENGIADSKDILRPYYIASHIKMIEKAFEDGYEVKGYFHWALTDNFEWALGFRMRFGLYEVNLITKERIPREKSVSIFREIVANNGVTKKIEEELLRG
notes: N-terminal His6-tag (pETDuet-1, tag kept), E. coli Rosetta2(DE3)pLysS; cloned gene differs from AF043283.1 by T436I, as in P. furiosus E08095.1 / AAC44387.1
In the case of B1, the Km is reported as 15.6 mM.
